Measurements published in patent US20210246218A1 (LYVGEN BIOPHARMA SUZHOU, published 2021).
Values joined by “and” are separate entries in the source; they are usually repeats but may differ in a detail not shown here. Equal values may be shown once.

Legend:
human CD137 on cells = human CD137 on cells (human, UniProt Q07011 24-255); test: cell-based or functional assay
[1] = target: T1, recombinant human CD137 receptor protein (human, UniProt Q07011 24-186); test: ELISA, huCD137 coated, clone 3712 titrated; full sigmoid, plateau about 1.5
T1 construct: Coated on ELISA plates; also called recombinant human CD137 protein
Description: For the data shown in FIGS. 16C-D, chimeric CD137 receptor protein samples were diluted in DPBS to 5 μg/mL and then coated onto an ELISA plate (Corning, Catalog number: 9018, high binding) at 50 μL (0.25 μg) per well, and incubated at 4° C. overnight. The plate was decanted and washed once; assay diluent was added at 200 μL/well. After a 1-hour incubation at room temperature, the plate was washed with PBST one time. […] The plate was incubated 1 hour at room temperature and then washed three times with PBST. Goat anti-human IgG-H+L HRP-conjugated at 1:100,000 dilution or goat anti-mouse IgG (H+L) secondary antibody, HRP, 10 at 1:50,000 dilution was added to the plate at 100 μL/well. The plate was incubated 1 hour at room temperature followed by washing with PBST four times. The TMB substrate solution was added 100 μL/well. The color was permitted to develop for 15 minutes and then 100 μL/well 2N H2SO4 was added to terminate the reaction. Absorbance at 450 nm and 620 nm was determined by a Tecan F200 Pro reader.

CD137 protein = target: T2, CD137 protein (UniProt Q07011 24-186, limits assumed); test: competition ELISA with CD137L: CD137 receptor coated, antibody titrated, CD137L added; A450-A620 falls from about 1.25 to about 0.64 (midpoint of an inhibition curve, called EC50 in the sheet's table)
T2 construct: also called CD137 antigen; CD137 receptor
Description: CD137 receptor was diluted in DPBS to 1 μg/mL, and then coated onto an ELISA plate (Corning, Catalog number: 9018, high binding) with a volume of 50 μL (0.05 μg) per well, and incubated at 4° C. overnight. The plate was decanted and washed once; assay diluent was added 200 μL/well. […] The diluted CD137 receptor was added to the assay plate, 50 μL/well, in duplicate. The plate was incubated one hour at room temperature. […] The plate was incubated one hour at room temperature and then washed three times with PBST. Goat anti-human IgG-H+L HRP conjugated at 1:100,000 20 dilution was added to the plate at 100 μL/well. The plate was then incubated one hour at room temperature followed by washing with PBST four times. The TMB substrate solution was added at 100 μL/well. The color was allowed to develop for 15 minutes, and was stopped with 100 μL/well 2N H2SO4. Absorbance at 450 nm and 620 nm was determined by a Tecan F200 Pro reader.

B1: Clone 3712-IgG1v (IgG1v/kappa) (antibody)
heavy: QVQLVQSGAEVKKPGASVKVSCKASGYTFAGFEMHWVRQAPGQGLEWMGAIDPKTGGTDYNQKFKDRVTMTRDTSISTAYMELSRLRSDDTAVYYCARDLGYFDVWGQGTLVTVSSASTKGPSVFPLAPSSKSTSGGTAALGCLVKDYFPEPVTVSWNSGALTSGVHTFPAVLQSSGLYSLSSVVTVPSSSLGTQTYICNVNHKPSNTKVDKKVEPKSCDKTHTCPPCPAPELLGPSVFLFPPKPKDTLMISRTPEVTCVVVDVEHEDPEVKFNWYVDGVEVHNAKTKPREEQYNSTYRVVSVLTVLHQDWLNGKEYKCKVSNKALPAPIEKTISKAKGQPREPQVYTLPPSREEMTKNQVSLTCLVKGFYPSDIAVEWESNGQPENNYKTTPPVLDSDGSFFLYSKLTVDKSRWQQGNVFSCSVMHEALHNHYTQKSLSLSPGK
light: DIQMTQSPSSLSASVGDRVTITCRASQDIRSNLNWYQQKPGGAVKLLIYYTSRLHSGVPSRFSGSGSGTDYTLTISSLQPEDFATYFCQQSEKLPRTFGGGTKVEIRRTVAAPSVFIFPPSDEQLKSGTASVVCLLNNFYPREAKVQWKVDNALQSGNSQESVTEQDSKDSTYSLSSTLTLSKADYEKHKVYACEVTHQGLSSPVTKSFNRGEC
notes: copies: 2 + 2
**Q.** How did the “IFN-γ secretion of human CD8+ T cells co-cultured with CHO-K1-huFcγRIIB cells and OKT3; average EC50, n=12” value (human CD137 on cells) turn out when B1 was run?
**A.** 30.6 ng/mL and ~0.21 nM

**Q.** And the “IL-8 secretion of CD137 reporter cells (GS-H2-huCD137) co-cultured with CHO-K1-huFcγRIIB cells; average EC50, n=6” value (human CD137 on cells)?
**A.** 44.4 ng/mL and ~0.31 nM

**Q.** What about the EC50 [1] of the same binder?
**A.** 0.0495 µg/mL

**Q.** And the IC50 (CD137 protein)?
**A.** 0.0643 µg/mL
